Where two headings read alike, the source gives them in different places. Each block holds one molecule with its values, some of them ahead of it.
Experiments:
[1] = biological target: sfGFP-MAP7 (full-length human MAP7) (human) (UniProt Q14244); assay: TIRF microscopy of fluorescent proteins on immobilized microtubules; recruitment and motility: MAP7 (or ensconsin), 5 nM, flowed in first onto immobilized microtubules, then the kinesin-1 construct (1 nM K560); BRB80 pH 6.8 with 1 mM ATP, 150 mM K-acetate; fold change of kinesin fluorescence on the microtubule against no MAP
[2] = biological target: taxol-stabilized microtubules polymerized from porcine brain tubulin (porcine) (UniProt P02550); assay: co-sedimentation; 500 nM sfGFP-MAP7 or sfGFP-tau with increasing microtubules; 50 mM Tris pH 8, 150 mM K-acetate, 2 mM Mg-acetate, 1 mM EGTA, 10% glycerol, DTT, taxol, BSA; 25 °C, 20 min; pelleted at 90,000 g; SDS-PAGE; apparent KD
[3] = biological target: taxol-stabilized microtubules of native tubulin, biotin-tubulin and fluorescent-tubulin from porcine brain (~10:1:1) (porcine) (UniProt P02550); assay: single-molecule dwell time by TIRF microscopy; 250 pM sfGFP-MAP7 or 10 nM sfGFP-tau on immobilized microtubules; kymograph analysis; cumulative frequencies fit to a one phase exponential decay; 30 mM Hepes pH 7.4, 150 mM K-acetate buffer
[4] = biological target: taxol-stabilized microtubules polymerized from porcine brain tubulin (porcine) (UniProt P02550); assay: co-sedimentation; 500 nM sfGFP-MAP7 or sfGFP-tau with increasing microtubules; 50 mM Tris pH 8, 150 mM K-acetate, 2 mM Mg-acetate, 1 mM EGTA, 10% glycerol, DTT, taxol, BSA; 25 °C, 20 min; pelleted at 90,000 g; SDS-PAGE; apparent KD; remark: listed apart in the source
[5] = biological target: taxol-stabilized microtubules of native tubulin, biotin-tubulin and fluorescent-tubulin from porcine brain (~10:1:1) (porcine) (UniProt P02550); assay: TIRF microscopy of fluorescent proteins on immobilized microtubules; TIRF-M-based microtubule-binding assay; KD derived from saturation curves
[6] = biological target: taxol-stabilized microtubules of native tubulin, biotin-tubulin and fluorescent-tubulin from porcine brain (~10:1:1) (porcine) (UniProt P02550); assay: TIRF microscopy of fluorescent proteins on immobilized microtubules; 5 nM KIF1A-mScarlet or 3 nM DDB-TMR on immobilized microtubules, alone or with 5 nM sfGFP-MAP7 or 100 nM mTagBFP-tau; 30 mM Hepes pH 7.4, 150 mM K-acetate, 2 mM Mg-acetate, 1 mM EGTA, 10% glycerol, 1 mM ATP
[7] = biological target: taxol-stabilized microtubules polymerized from porcine brain tubulin (porcine) (UniProt P02550)
[8] = biological target: taxol-stabilized microtubules of native tubulin, biotin-tubulin and fluorescent-tubulin from porcine brain (~10:1:1) (porcine) (UniProt P02550); assay: TIRF microscopy of fluorescent proteins on immobilized microtubules; recruitment and motility: MAP7 (or ensconsin), 5 nM, flowed in first onto immobilized microtubules, then the kinesin-1 construct (1 nM K560); BRB80 pH 6.8 with 1 mM ATP, 150 mM K-acetate; fold change of kinesin fluorescence on the microtubule against no MAP
[9] = biological target: sfGFP-Ensconsin, wild type (Drosophila melanogaster) (Drosophila melanogaster); assay: as above
Chain of sfGFP-Ensconsin, wild type (Drosophila melanogaster) (Drosophila melanogaster) (main, as listed by the source): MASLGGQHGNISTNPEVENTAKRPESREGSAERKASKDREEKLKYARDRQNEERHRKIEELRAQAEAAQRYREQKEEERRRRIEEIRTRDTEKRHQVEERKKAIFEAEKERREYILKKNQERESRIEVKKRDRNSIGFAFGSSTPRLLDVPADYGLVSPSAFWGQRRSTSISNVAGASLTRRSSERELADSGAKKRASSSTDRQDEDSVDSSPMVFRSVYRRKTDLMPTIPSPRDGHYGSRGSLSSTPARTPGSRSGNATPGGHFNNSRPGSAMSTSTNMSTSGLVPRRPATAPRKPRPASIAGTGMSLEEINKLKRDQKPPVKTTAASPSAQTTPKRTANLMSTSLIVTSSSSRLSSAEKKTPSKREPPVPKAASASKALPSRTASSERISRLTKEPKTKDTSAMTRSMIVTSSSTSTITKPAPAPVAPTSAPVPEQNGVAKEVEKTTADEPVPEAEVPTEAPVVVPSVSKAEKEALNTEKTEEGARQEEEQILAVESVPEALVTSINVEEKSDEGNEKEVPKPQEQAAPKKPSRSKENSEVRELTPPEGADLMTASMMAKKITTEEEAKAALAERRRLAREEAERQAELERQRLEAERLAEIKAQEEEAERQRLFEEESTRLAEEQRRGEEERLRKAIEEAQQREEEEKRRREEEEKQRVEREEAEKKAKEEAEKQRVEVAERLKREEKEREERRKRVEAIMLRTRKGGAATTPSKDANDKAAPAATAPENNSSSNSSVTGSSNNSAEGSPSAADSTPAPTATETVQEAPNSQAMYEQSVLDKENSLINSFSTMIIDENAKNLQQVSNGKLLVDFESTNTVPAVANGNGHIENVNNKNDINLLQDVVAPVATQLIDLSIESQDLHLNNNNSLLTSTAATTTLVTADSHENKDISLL

- fold change in fluorescence intensity on the microtubule in the presence of sfGFP-MAP7 [1]: 152 fold
Molecule: K523-mScarlet (from UniProt P33176 1-523) (domain or fragment)

- KmMT of the microtubule-stimulated ATPase of 50 nM K560-mScarlet, with 50 nM sfGFP-MAP7 [7]: 0.27 µM
- KmMT of the microtubule-stimulated ATPase of 50 nM K560-mScarlet, without MAP7 [7]: 1.46 µM
- landing rate (motors μm^−1 min^−1) [8]: 0.09
- landing rate with 5 nM sfGFP-MAP7 (motors μm^−1 min^−1) [8]: 1.34
- fold change in fluorescence intensity on the microtubule in the presence of ensconsin [9]: 147 fold
- fold change in fluorescence intensity on the microtubule in the presence of sfGFP-MAP7 [1]: 165 fold
Molecule: K560-mScarlet (truncated human kinesin-1) (from UniProt P33176 1-560) (domain or fragment)

Further lines, the molecule ahead of its results:

Molecule: sfGFP-MAP7 (full-length human MAP7) (from UniProt Q14244 1-749) (natural protein)
- Kd [2]: 470 nM
- dwell time decay constant τ [3]: 82.3 s
- Kd [4]: 460 nM
- Kd [5]: 3030 nM

Molecule: sfGFP-MAP7ΔC (aa 1–353) (from UniProt Q14244 1-353) (domain or fragment)
- Kd [5]: 1390 nM

Molecule: dynein–dynactin-BicD2 (DDB)-TMR complex (from UniProt Q921C5 1-820)
- fluorescence intensity on the microtubule [6]: 164 A.U.
- fluorescence intensity on the microtubule with 5 nM sfGFP-MAP7 [6]: 147 A.U.

Molecule: K508-mScarlet (from UniProt P33176 1-508) (domain or fragment)
- fold change in fluorescence intensity on the microtubule in the presence of sfGFP-MAP7 [1]: 10.9 fold

B1: KIF1A-mScarlet (human KIF1A 1–393) (domain or fragment)
chain: MAGASVKVAVRVRPFNSREMSRDSKCIIQMSGSTTTIVNPKQPKETPKSFSFDYSYWSHTSPEDINYASQKQVYRDIGEEMLQHAFEGYNVCIFAYGQTGAGKSYTMMGKQEKDQQGIIPQLCEDLFSRINDTTNDNMSYSVEVSYMEIYCERVRDLLNPKNKGNLRVREHPLLGPYVEDLSKLAVTSYNDIQDLMDSGNKARTVAATNMNETSSRSHAVFNIIFTQKRHDAETNITTEKVSKISLVDLAGSERADSTGAKGTRLKEGANINKSLTTLGKVISALAEMDSGPNKNKKKKKTDFIPYRDSVLTWLLRENLGGNSRTAMVAALSPADINYDETLSTLRYADRAKQIRCNAVINEDPNNKLIRELKDEVTRLRDLLYAQGLGDITD
- fluorescence intensity on the microtubule [6]: 1000 A.U.
- fluorescence intensity on the microtubule with 5 nM sfGFP-MAP7 [6]: 332 A.U.
- fluorescence intensity on the microtubule with 100 nM mTagBFP-tau [6]: 427 A.U.
- landing rate (motors μm^−1 min^−1) [6]: 1.5
- landing rate with mTagBFP-tau (motors μm^−1 min^−1) [6]: 0.24
- landing rate with sfGFP-MAP7 (motors μm^−1 min^−1) [6]: 0.38
